B1: Serine-threonine kinase receptor-associated protein (Homo sapiens), Q9Y3F4 (parent)
chain: MAMRQTPLTCSGHTRPVVDLAFSGITPYGYFLISACKDGKPMLRQGDTGDWIGTFLGHKGAVWGATLNKDATKAATAAADFTAKVWDAVSGDELMTLAHKHIVKTVDFTQDSNYLLTGGQDKLLRIYDLNKPEAEPKEISGHTSGIKKALWCSEDKQILSADDKTVRLWDHATMTEVKSLNFNMSVSSMEYIPEGEILVITYGRSIAFHSAVSLDPIKSFEAPATINSASLHPEKEFLVAGGEDFKLYKYDYNSGEELESYKGHFGPIHCVRFSPDGELYASGSEDGTLRLWQTVVGKTYGLWKCVLPEEDSGELAKPKIGFPETTEEELEEIASENSDCIFPSAPDVKA

Key:
Conditions in all cases: with ndka_human NME1, P15531
[1] = variants of: B1
[2] = variants of: B1; remark: listed apart in the source
[3] = variants of: B1; remark: listed apart in the source

Chain of ndka_human NME1, P15531 (P15531 whole entry): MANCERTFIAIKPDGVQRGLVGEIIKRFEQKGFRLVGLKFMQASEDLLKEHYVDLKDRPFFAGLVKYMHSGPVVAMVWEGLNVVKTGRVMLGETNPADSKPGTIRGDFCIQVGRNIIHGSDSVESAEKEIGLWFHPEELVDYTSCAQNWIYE

Row | effect of a mutation on the interaction [1] | effect of a mutation on the interaction [2] | effect of a mutation on the interaction [3] | Variant
1 | decreasing interaction | disrupting interaction | – | MAMRQTPLTCSGHTRPVVDLAFSGITPYGYFLISACKDGKPMLRQGDTGDWIGTFLGHKGAVWGATLNKDATKAATAAADFTAKVWDAVSGDELMTLAHKHIVKTVDFTQDSNYLLTGGQDKLLRIYDLNKPEAEPKEISGHTSGIKKALWCSEDKQILSADDKTVRLWDHATMTEVKSLNFNMSVSSMEYIPEGEILVITYGRSIAFHSAVSLDPIKSFEAPATINSASLHPEKEFLVAGGEDFKLYKYDYNSGEELESYKGHFGPIHSVRFSPDGELYASGSEDGTLRLWQTVVGKTYGLWKCVLPEEDSGELAKPKIGFPETTEEELEEIASENSDCIFPSAPDVKA [C270S]
2 | decreasing interaction | disrupting interaction | – | MAMRQTPLTCSGHTRPVVDLAFSGITPYGYFLISACKDGKPMLRQGDTGDWIGTFLGHKGAVWGATLNKDATKAATAAADFTAKVWDAVSGDELMTLAHKHIVKTVDFTQDSNYLLTGGQDKLLRIYDLNKPEAEPKEISGHTSGIKKALWSSEDKQILSADDKTVRLWDHATMTEVKSLNFNMSVSSMEYIPEGEILVITYGRSIAFHSAVSLDPIKSFEAPATINSASLHPEKEFLVAGGEDFKLYKYDYNSGEELESYKGHFGPIHCVRFSPDGELYASGSEDGTLRLWQTVVGKTYGLWKCVLPEEDSGELAKPKIGFPETTEEELEEIASENSDCIFPSAPDVKA [C152S]
3 | disrupting interaction | – | decreasing interaction | MAMRQTPLTCSGHTRPVVDLAFSGITPYGYFLISACKDGKPMLRQGDTGDWIGTFLGHKGAVWGATLNKDATKAATAAADFTAKVWDAVSGDELMTLAHKHIVKTVDFTQDSNYLLTGGQDKLLRIYDLNKPEAEPKEISGHTSGIKKALWSSEDKQILSADDKTVRLWDHATMTEVKSLNFNMSVSSMEYIPEGEILVITYGRSIAFHSAVSLDPIKSFEAPATINSASLHPEKEFLVAGGEDFKLYKYDYNSGEELESYKGHFGPIHSVRFSPDGELYASGSEDGTLRLWQTVVGKTYGLWKCVLPEEDSGELAKPKIGFPETTEEELEEIASENSDCIFPSAPDVKA [C152S;C270S]

Source: IntAct's records for PubMed 17314099
